Target: T1, eIF5B (residues 396–1002) (S. cerevisiae, UniProt P39730 396-1002)
T1 construct: translation initiation factor eIF5B (GTPase), Saccharomyces cerevisiae, residues 396-1002; also called eIF5B:GTP; eIF5B-GDP; source: prepared and characterized as described [11]
T1 sequence (looked up): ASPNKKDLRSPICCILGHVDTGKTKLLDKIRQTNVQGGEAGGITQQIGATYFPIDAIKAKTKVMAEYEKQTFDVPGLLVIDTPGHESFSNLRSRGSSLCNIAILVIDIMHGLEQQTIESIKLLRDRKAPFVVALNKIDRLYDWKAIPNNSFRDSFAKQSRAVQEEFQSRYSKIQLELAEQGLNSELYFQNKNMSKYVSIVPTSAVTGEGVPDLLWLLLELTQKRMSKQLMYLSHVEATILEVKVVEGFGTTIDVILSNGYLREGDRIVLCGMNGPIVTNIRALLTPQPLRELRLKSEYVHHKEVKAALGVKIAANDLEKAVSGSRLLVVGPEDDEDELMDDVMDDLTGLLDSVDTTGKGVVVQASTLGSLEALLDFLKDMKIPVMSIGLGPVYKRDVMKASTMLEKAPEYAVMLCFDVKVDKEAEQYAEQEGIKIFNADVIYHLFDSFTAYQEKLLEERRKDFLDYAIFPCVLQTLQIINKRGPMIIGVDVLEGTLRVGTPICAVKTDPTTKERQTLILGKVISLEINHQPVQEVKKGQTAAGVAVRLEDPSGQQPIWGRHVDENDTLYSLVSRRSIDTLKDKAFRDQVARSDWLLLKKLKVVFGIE
Assay: cryo-EM structure; 48S PICs mixed with eIF5B:GTP and 60S, frozen ~40 s after mixing; 30 mM HEPES-KOH pH 7.5, 100 mM KOAc, 10 mM Mg(OAc)2, 1 mM GTP:Mg2+; grids at 21 °C; uL16 within the 60S subunit
Settings: both partners purified

binding result: binds
B1: ribosomal protein uL16 (natural protein, S. cerevisiae)
chain: RRPARCYRYQKNKPYPKSRYNRAVPDSKIRIYDLGKKKATVDEFPLCVHLVSNELEQLSSEALEAARICANKYMTTVSGRDAFHLRVRVHPFHVLRINKMLSCAGADRLQQGMRGAWGKPHGLAARVDIGQIIFSVRTKDSNKDVVVEGLRRARYKFPGQQKIILSKKWGFTNLDRPEYLKKREAGEVKDDGAFVKFLSKKGSLENNIREFPEYFA
notes: ribosomal protein uL16, component of the 60S large ribosomal subunit, Saccharomyces cerevisiae; Stood in the assay as a subunit of the whole 60S/80S ribosome, not as an isolated protein; source: in yeast Saccharomyces cerevisiae 60S ribosomal subunits, prepared as described [11]
